Results as given in publication PMC12753870, “A novel fully human anti-ROR1 antibody PBA-0405 optimized for ADCC, induces potent anti-tumor activity against both solid and hematological malignancies” (Frontiers in Immunology, 2025).
One block for each molecule: values may come before it.

Columns and labels:
recombinant FcγRIIA 167H = recombinant FcγRIIA 167H (UniProt P12318); assay: SPR; Biacore 8K; biotinylated FcγR immobilised on CAP chip, antibody as analyte in PBS-P+, 30 µL/min; steady state affinity; doses of 22.0405.aF 240-4000 nM for CD32a, 3-200 nM for CD16b; the legend of Supplementary Figure 2 says 'BLI or SPR'
recombinant FcγRIIA 167H, sequence (P12318 34-217): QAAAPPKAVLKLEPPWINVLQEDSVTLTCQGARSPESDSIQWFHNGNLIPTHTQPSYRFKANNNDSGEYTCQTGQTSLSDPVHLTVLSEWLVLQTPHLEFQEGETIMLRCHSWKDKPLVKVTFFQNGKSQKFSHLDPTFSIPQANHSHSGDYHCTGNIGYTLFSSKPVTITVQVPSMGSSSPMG

recombinant FcγRIIIB = recombinant FcγRIIIB (UniProt O75015); assay: as above
recombinant FcγRIIIB, sequence (O75015 17-200): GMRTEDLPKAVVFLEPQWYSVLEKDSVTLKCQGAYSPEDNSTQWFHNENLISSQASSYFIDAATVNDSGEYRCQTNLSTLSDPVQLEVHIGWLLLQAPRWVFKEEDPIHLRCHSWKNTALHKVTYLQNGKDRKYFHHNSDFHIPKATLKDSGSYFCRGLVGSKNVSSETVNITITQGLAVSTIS

recombinant FcγRI = recombinant FcγRI (UniProt P12314); assay: SPR; Biacore 8K; biotinylated FcγR immobilised on CAP chip, antibody as analyte in PBS-P+, 30 µL/min; 1:1 Langmuir fit, KD = koff/kon; doses of 22.0405.aF 8-500 nM for CD64, 31-2000 nM for CD32b; the legend of Supplementary Figure 2 says 'BLI or SPR'
recombinant FcγRI, sequence (P12314 16-292): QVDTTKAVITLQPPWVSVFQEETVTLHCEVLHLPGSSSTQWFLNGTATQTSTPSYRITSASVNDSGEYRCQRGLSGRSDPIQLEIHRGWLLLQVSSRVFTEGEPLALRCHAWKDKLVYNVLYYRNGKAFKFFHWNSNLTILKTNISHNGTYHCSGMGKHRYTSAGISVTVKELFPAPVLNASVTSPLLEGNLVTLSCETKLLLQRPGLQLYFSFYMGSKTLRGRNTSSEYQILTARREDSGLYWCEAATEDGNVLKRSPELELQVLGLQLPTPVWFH

recombinant FcγRII B/C = recombinant FcγRII B/C (UniProt P31994); assay: as above
recombinant FcγRII B/C, sequence (P31994 43-217): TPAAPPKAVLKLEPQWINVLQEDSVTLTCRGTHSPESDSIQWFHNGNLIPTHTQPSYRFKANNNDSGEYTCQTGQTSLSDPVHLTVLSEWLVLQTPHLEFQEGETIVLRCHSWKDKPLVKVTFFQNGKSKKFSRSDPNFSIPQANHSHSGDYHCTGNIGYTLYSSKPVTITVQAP

[1] = molecular target: recombinant FcγRIIIA (CD16), allotype 158F (UniProt P08637); assay: SPR; Biacore 8K; biotinylated recombinant FcγR proteins immobilised on CAP chips; antibodies as analytes in PBS-P+ buffer, 30 μL/min; 1:1 Langmuir model
recombinant FcγRIIIA (CD16), allotype 158F, sequence (P08637 17-208): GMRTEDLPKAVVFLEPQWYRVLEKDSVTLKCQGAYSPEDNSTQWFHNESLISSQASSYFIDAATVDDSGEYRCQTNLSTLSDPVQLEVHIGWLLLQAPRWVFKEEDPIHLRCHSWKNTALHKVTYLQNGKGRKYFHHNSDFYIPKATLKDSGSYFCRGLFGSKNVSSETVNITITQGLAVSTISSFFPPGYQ

[2] = molecular target: human ROR1 on transfected CHO-K1 cells (CHO-ROR1) (human) (UniProt Q01973)
[3] = molecular target: ROR1 endogenously expressed on JeKo-1 cells (human (endogenous in JeKo-1)) (UniProt Q01973)
[4] = molecular target: ROR1 endogenously expressed on JeKo-1 cells (human (endogenous in JeKo-1)) (UniProt Q01973); remark: listed apart in the source
[5] = molecular target: recombinant FcγRIIIA (CD16), allotype 158V (UniProt P08637); assay: SPR; Biacore 8K; biotinylated recombinant FcγR proteins immobilised on CAP chips; antibodies as analytes in PBS-P+ buffer, 30 μL/min; 1:1 Langmuir model
recombinant FcγRIIIA (CD16), allotype 158V, sequence (P08637 17-208 F176V): as the sequence (P08637 17-208) above, with F160V counted along it

[6] = molecular target: T1, recombinant Kringle (KRD) domain of human ROR1 (Homo sapiens, UniProt Q01973); assay: BLI; Octet RED384; antibodies immobilised on AR2G sensors; dipped in 500 nM recombinant Ig-like, Frizzled or Kringle domain for 150 s, dissociation 200 s; settings: both partners purified
T1 construct: ROR1, human, Kringle (KRD) domain; source: bought: Acro Biosystems

[7] = molecular target: T2, recombinant Ig-like (IG) domain of human ROR1 (aa 39–151) (Homo sapiens, UniProt Q01973); assay: as above; settings: both partners purified
T2 construct: ROR1, human, Ig-like domain, aa 39–151; source: bought: Acro Biosystems

[8] = molecular target: T3, human ROR2 on transfected CHO-K1 cells (CHO-ROR2) (Homo sapiens, UniProt Q01974); assay: flow cytometry on cells; antibody titrated on CHO-K1 cells transfected with ROR1, ROR2 or empty vector, or on cells expressing ROR1 endogenously (JeKo-1); 30 min on ice; detected with APC goat anti-human IgG Fcγ; settings: one partner purified
T3 construct: receptor tyrosine kinase-like orphan receptor 2 (ROR2), human; also called hROR-2; source: CHO-K1 cells, transfected, on cells

[9] = molecular target: T4, human ROR1 on transfected CHO-K1 cells (CHO-ROR1) (Homo sapiens, UniProt Q01973); assay: as above; settings: one partner purified
T4 construct: receptor tyrosine kinase-like orphan receptor 1 (ROR1), human; also called hROR1; CHO cells overexpressing ROR1; source: CHO-K1 cells, stably transfected, on cells

[10] = molecular target: T5, recombinant human ROR1/Fc (full-length extracellular domain of ROR1) (Homo sapiens, UniProt Q01973); assay: BLI; Octet RED384; antibodies captured on FAB2G (anti-hIgG CH1) biosensors at 5 μg/mL; ROR/Fc as analyte 200–3.13 nM in 10× Kinetics Buffer; 200 s association, 500 s dissociation; 1:2 (bivalent analyte) model; apparent KD = koff1/kon1; settings: both partners purified
T5 construct: receptor tyrosine kinase-like orphan receptor 1 (ROR1), human, full-length extracellular domain; Fitted as a bivalent analyte (1:2 model); also called hROR1; recombinant extracellular part of ROR1; source: bought: R&D Systems

[11] = molecular target: T6, recombinant mouse ROR1/Fc (Mus musculus, UniProt Q9Z139); assay: as above; settings: both partners purified
T6 construct: ROR1, mouse; also called mROR1; source: bought: R&D Systems
T6 sequence (Q9Z139 30-406): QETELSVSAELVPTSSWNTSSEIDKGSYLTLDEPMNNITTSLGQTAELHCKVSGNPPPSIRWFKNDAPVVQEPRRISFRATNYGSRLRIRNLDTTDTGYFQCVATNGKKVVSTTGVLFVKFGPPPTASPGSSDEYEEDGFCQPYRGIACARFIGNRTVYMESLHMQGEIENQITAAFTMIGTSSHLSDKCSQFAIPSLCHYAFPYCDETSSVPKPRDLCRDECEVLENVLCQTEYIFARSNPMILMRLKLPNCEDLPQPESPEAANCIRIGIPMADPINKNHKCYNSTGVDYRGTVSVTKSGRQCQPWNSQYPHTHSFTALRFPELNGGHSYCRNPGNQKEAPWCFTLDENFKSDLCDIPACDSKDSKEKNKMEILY

Molecule: zilovertamab-like antibody
Kd (recombinant FcγRIIA 167H): 2200 nM
Kd (recombinant FcγRIIIB): > 4000 nM
Kd (recombinant FcγRI): 0.054 nM
Kd (recombinant FcγRII B/C): > 4000 nM

Molecule: zilovertamab-like antibody (anti-ROR1 mAb mimicking zilovertamab, humanized native IgG1)
Kd [1]: 3400 nM

The remaining molecules from weak to strong by Kd [1], led by results:

Kd [1]: 690 nM
Kd [5]: 217 nM
binding result [6]: no binding (tested: 500 nM)
binding result [7]: no binding (tested: 500 nM)
binding result [8]: no binding
EC50 [9]: 0.56 nM
Kd [10]: 60 nM
Kd [11]: 240 nM
B2: 22.0405 (native, fucose-containing fully human anti-ROR1 IgG1 mAb) (antibody, V domains shown)
VH: EVQLLESGGGLVQPGGSLRLSCAASGFTFHKYGMAWVRQAPGKGLEWVSSIDDRGRYTYYADSVKGRFTISRDNSKNTLYLQMNSLRAEDTAVYYCARGSYIIWSALDYWGQGTLVTVSS
VL: DIQMTQSPSSLSASVGDRVTITCRPNQNIATYINWYQQKPGKAPKLLIYHDNKRPSGVPSRFSGSGSGTDFTLTISSLQPEDFATYYCQQYEKLPWTFGQGTKVEIK
notes: human IgG1 heavy chain constant region; IgG1; source: CHOK1 cells (BioIntron, China)

NK cell-mediated ADCC towards Raji cells overexpressing human ROR1 (Raji-ROR1); EC50; no statistically significant ADCC towards wild-type Raji cells [2]: 0.002 nM
ADCC by healthy donor NK cells against primary B-CLL cells (65%–99% ROR1-positive); EC50 [4]: 0.018 nM
Kd [1]: 57 nM
B1: 22.0405.aF (afucosylated form of 22.0405, fully human anti-ROR1 IgG1) (antibody, V domains shown)
VH: B2 VH
VL: B2 VL
tumor cell killing with total PBMCs as effector cells; EC50 [3]: 0.02 nM
